Assay results from the domain aggregation screens of Martell et al. (2025).

assay: soluble fraction after stress (log2 fold change); higher = more stays soluble; pooled small domains, quantitative proteomics; conditions: stress: 50 degC
Method in brief: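 Pooled custom libraries of small protein domains were each held under stress at 50°C. The read-out, high-throughput quantitative proteomics, tracked how much of each protein stayed soluble. This is reported as a base-two log fold change used to indicate aggregation propensity. Higher values mean more protein remains in solution.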

| Sequence | soluble fraction (log2) |
| --- | --- |
| HMKHVDLDNNERYIYGIIGSTKIHVDEVVEKSGMETKHVMAILTNLELKEAIKGIPGGFYLR | -0.506 |
| HMNPNEVQIPDLVNKTEEEAEQILKDLKLKLVVKSEEYDENIEKGKIISQDPTYKENYKIKEHSEISVIIS | 0.214 |
| HMGQLTDKQILLFSGKLAYEPTFASKYSKAGESYDDFIIRISGDLTDPKKIKEYSPYLKELGF | -0.161 |
| HMKAGRNTLARQMAILEVLQKDGRALVDDLAARFETTPQTIRKDLSALAEVNQISRFHGGAALVG | -0.0796 |
| HMGAPVIYELTAESAAGQRIDKYLSGQLADLSRSYLQKLLKDGGVEVNKKPVKSNYKLSEGDQIRLEVPEA | 0.207 |
| HMIDHKVIRSFRQKRNMTLQELAQKANLSVSYLSEIELGKKQPSLETLDKLSKALNISLEGL | -0.116 |
| HMEMTDKEEELMRIFWNHGPMFVREIVELYPEPRPHFNTLSTFVRNLEQKGFVSHEAVGGSFRYYAV | -1.26 |
| HMIPDAIDPDGRFKWRAGEAVVGFGRHAGEPLKKIAIENPEFLRWILKADFSTDVKKIASDALKGYFPEK | -0.23 |
| HMTPKVTVPDVTGQTFSSAKQILESLGFTVKQQGSTDETDQVIDQNPTSGEADKGATITLTTKSS | 0.297 |
| HMADAGQTTAATELKQAPNAGSATISQLSAGQTLQIGTRQGAWYQVKTPQGEGWVRMLSVRLQ | 0.0186 |
| HMNDMPELLSIKEASQWATEYLNKNVTTSNIAYLIQYGRIRKIGNNGSTQVLKDDLVKYYKDQK | -0.139 |
| HMREPIPVPSRPIRAGDLVEIPGTNRPAEVTAVKGDRLVLKAGVLSMTVKNDEVRLIEDDERAAM | 0.0715 |
| HMVFRFELQPSSATPLYRQIVEQVTRAVAAGVLRDGEELPSVRAVAQEYVINPMTVSKAYSLLEAQSI | -0.349 |
| HMEGTVQQDKFDAYKAKFEDAISNDLNTSMAITIIYDLLKDDMNDKTKLALINDFDKVLSLNLTTA | -0.255 |
| HMVEIGENIKKLRKAKRMTQKEVANQLNVTPQTISKWERNISYPDLDMLVKLSQLFHISTDALL | -0.0765 |
| HMRNKTVKEVLDYIEKNSEFIFFYYSKAIDTKRIVSLSVKDQPITVILDQLFKNTDVLYEIKDRQISLKRE | 0.277 |
| HMKPGYVIQVNGTVTKIQSGLVYVKTPAAQYTLMRKYAPADAAVGDRVSLWINEEGMVIDVHGK | -0.0092 |
| HMSTMTDAQRHLFANKLSQLPEMGKYSHGTESYQQFAVRIAEMLQTPKKFKELYPYLQKVGFKA | 0.00319 |
| HMSSSYVYGGNGEIVILSDVSKHLNVYNLNGQKVTDVNLTAGELQRISIATGIYVVGGKKIVV | -2.92 |
| HMQSQIAQLYNPLLGYVKKRINSREDAEDLTQDIFLKLSKSNKDGVDNLKSWLYTIAKNTITDYYRKKKII | 0.15 |
| HMGMAETTARILQLLGLLQSRRGWSGQELAERLGVTTRSVRRDVERLRELGYPVHASAGHGGGYQLGA | -1.8 |
| HMKGLDRATNKALLLKHIIDNGSTGTRFSELRQVLPSLTRGSISSLLIELRSEGKIHSIGVTRNARWYPTE | -1.07 |
| HMPGLDTTILSDILSLKKELPSRSAAKILIMLILAKRIEEGSLNLRTINRILNQYGYTRESLL | 0.0736 |
| HMRQHHMIISTKLGTPKEELAKLVSGFEDQGLRVSVITGTDYTVIGLVGDTTHLDEKRIRANPYVDNVQRV | -0.0184 |
| HMEETLRELAVKISKQVIKTGRNSVLEPMNPYERRIIHAVISEIEGVSSKSVGEDPNRKVVIMSTNP | -0.126 |
| HMVVDEQRIQTLVSAAEQNSSDPVPRVTLGNLYFDAEQFEEAVKWYEQALALDPRNVNVSTDLGVGYYY | -0.00895 |

| Sequence | soluble fraction (log2) |
| --- | --- |
| HMNGEDVTDAIRLPQISQYASVVSAYPGVRAFLLEMQRDFARKGSVIMDGRDIGTVVLPEAEVKIFLT | -0.025 |
| HMFTEEQMDWLRLIKDHIVASLSILPEDLELTPFDRKGGLLGFYDAFGDEYEKILQEMNEELVA | -0.588 |
| HMNSLPFSNFMNEVEAGRVVEVKIQGNNISGVLANGKTFSTYSPNYPELVEKLSSNGVSIVATPQ | 0.153 |
| HMFQLSNEAKQQVLGELKRYESKQSAVLPALYIGQKDNKGHITPEVIRELSKVMDIPESQINEVFTFYTM | -0.119 |
| HMRASVTYVVQVNGKLRGKLEVAPDIDPEELKKLALEVENVKHSLQGWTVKKVIVIPGKMVSIAAGK | 0.0764 |
| HMDTLESYVKRLEKLEGIADSFKGVSKAFALQAGREIRIMVESEKITDEEAVWLSKDIARRIENELEYPG | -0.378 |
| HMPTTLEGIEKYLSSGLIKGIGPHLAGKLVEAFGTRVFEVVEHQPERLRTVGGIGRTRAESITSAWRDQ | -0.168 |
| HMSDAGMNQIGDMFRAPDLMAKLAMNPATREYVSQPDFLAMMEEVKRNPSALNNHLRDPRMMNVLSVAM | -0.115 |
| HMEDVDLFTKAMAALPNRYRDILLLRYSHGYTVEEISDILSMKPENVKKTIQRARKKLGEILEAEG | -0.654 |
| HMQNKFLDIVGEIEVKAVDYYLLKDTSGLVIKFPKNLVFANGLKIADNKIGLTVSLYGAWVHEET | -1.17 |
| HMEYYEDEELDRFRGRNSDQYSDAEIEEFNEILTTLRSEEVAGWIRSLQLREIALPDELKDDVILLVG | -0.804 |
| HMHSILDDIEGIGPARRKALMRHYMNLDAIKSATVEELAAVPSMNEKSAKAVHNFFHQQKKD | 0.242 |
| HMLPDLLNGRVIPSPEKVIRARLNRGVWELLVQWVGRAPSDATWENLLEFKSAYPSVQLEDALF | -1.45 |
| HMKHKHHIIPKHKGGTDHPDNLIELTVEQHAKAHWVEFMLDGREEDYWAWKGLEGVASKKDIIYALSKR | 0.351 |
| HMRIHKQLGDRIRNLRLSSGMNQEELAFKSGISAAHLGQIERGLKSPTISTIQKIAKALNVTLPILF | -0.298 |
| HMPFNLKSLADRLSHVFPGLVKMRDDIGAIIVMDKIKVTEHGVTEGGGLAADRVRAVYNEFIKEY | 0.195 |
| HMNSEELFLRRIAQELIDQHGKDLHRIIVVLPSNRSKVFLKKFLFEILGSAFLTPQLMLLPQFVKSIV | -0.282 |
| HMHPVTGRIGTVTAANGLNLRADSSEYANVVATLGYGVDVTVTGERINGFYPVRVGTLSGYVSADYVSFNS | -0.238 |
| HMEEFLSFIADILEVDKNTLTLETSQDDVETWDSLMQLRLLGEIEAKYGVMIPMERISTIKKLNDFYQYIK | -0.513 |
| HMGTTTPPATRKGKVTSSFLNVRSGPSTANAKVAELKQNAVVTIYETSSNGWHRIGVNQWVIGTNIQE | -0.441 |
| HMKNIRKQAIEAIDRIKNGNPIVISKNAKLIFKNIAKEANVSPTELHREFRDVMLYVNSLKAP | -0.255 |
| HMESAQLIINVAGKVSNPGVYQLPQGSRVVDAIEAAGKQLKGVDISDINLARVLVDGEQILVGGV | 0.247 |
| HMVPSSHNIAQKVKQIKINDLWLDVRERYIYLKNLYLSHPLEKDHPSFIVYVEAVNQIYNQYF | 0.02 |
| HMTEEPISDGIKKLVEEWENIEGNLIMIFHGIQKHYGYVPRNVAKYVSEAIDVPLTRIYEILTFYNYFTM | 0.142 |
| HMHDLSQQIVRYLIQQGGSSSLTDKSDPQEIYRTFKVSKKKYKQALGNLYKSKTIVITSGKIELVD | -2.69 |
| HMGNFNDMLKYLRVREKMSQAELADKLGVSKSTVGMYELGKREPDFETLEAIADLFNVDMNFLLGK | -0.35 |

| Sequence | soluble fraction (log2) |
| --- | --- |
| HMKVSDLIGMLGRVTGELAPTGIVLVGNKTWTAISEDASVIASGEQVQVRSVAGLILTVSHQVD | -2.15 |
| HMAAMDMFVKLDALDAELTEQLKALPAEPDDARVERGLALLTDYDHRIKALLTEIFGGENDFDKVL | -2.4 |
| HMQGQVLQETARKARSQLDSEIPGFNDALYQNLIKSSENYGYKAEEVAQWVDPRAIKVLNDAYQFQQLKAG | -0.0765 |
| HMSAQDLIVKTDATQVEARVLEISPEQIRYKRFSNPDGPTYVLPVDAVDYIRYANGETDSFR | -0.0039 |
| HMSDRESYGRYRNVSLTLSEYESLKNEYPLYADKYIERLSEYMETAGKHYNNHYATILSWLSKDIK | -0.487 |
| HMATTIEAPMPGKILDVKVNPGQAVSYGQVVLTMEAMKMETEIVAPADGTVASVLVKSGDMVETGAALVSL | 0.0867 |
| HMIERVLRTEEHIEAFAGEEVEAKLFAPIDGKKTLRGILGGIEDGRVILTVGDTEYRIEHAKISRLTTVFD | -0.122 |
| HMQMPDLTGKPRAEAVTTLAALGFTDVKFLDASAGDEPLDYVADQVVRTSPEAGAALASGQQITIYLAT | 0.101 |
| HMYSSASKEEIDQLMKRLILNLDAKGYFWPQDKEKSLKLYLHNLFSKLPLNSSDIRFLHGLIRALSEE | -1.08 |
| HMPKETFLNLDEEKRQAIINVLLKNFSEQHISQVKVSAIVSGIGMSRGAFYKYFEDLEDAYRFTISYFSA | -0.0102 |
| HMLIDQYPYSIIYRLIPHGRSNAVPAAQIVGLTKLDERSIRIYVEAMRREGHIIASSSKGYYFPASIEE | -2.83 |
| HMVMETLAERINTALQTKGLSVNALARRVGVSYPAMRKITKGETLNPKFLFEIAEALGVSVEWLKTGEGSP | -0.372 |
| HMGVDMGPAKYVGQKALTATEMRPAGKIQIGQTVFDAVSVGPFIGARKAVKVIKYENAQLYVEPE | 0.00597 |
| HMDDFNLSPREKDVLGHLVKGNSYKMIADELQIGYDTVHSHIKKIYKKLHVNSMSEAVAKALKNKL | 0.543 |
| HMNMVEESVKKSSQWAVFEPNTISTWVKIQAMIENYLYQKWKEGALAGAKPEHAFFVKVGLGETM | 0.163 |
| HMLTSIDQMLKLAMPDSDITVSKMNGLILLTGTVKAPEDAAEAERLVQAFSAPPPGQPPVTVVSRLRTA | 0.0549 |
| HMGFDTSMNKYTIDDLLKLLELGSNPSQAEIVNKITNFNTIFVDNSGVIQFLNNIQDKLLDNFK | -0.396 |
| HMSTTALLEKMVRYIRTLPVISQVVLSLHYYRGMELREIASELDITESRASQLHTTAVLGIRDLLSSY | -3.33 |
| HMRWGDPLTVKVPSFIGQTKDDIAKQHYPFRIEWHGEGAKIGSQLPEVDSVIKQDGTIHLYLV | -0.104 |
| HMYMTTADADMWKYVNTGRYNNDIQLMEEYKNRSMDSFEVITPEQQRKYNKAAMNLNSYYAWADPSYKPNP | -0.257 |
| HMPTNVYSIIGKEGIVLESIDNLNSTGKVKVNGELWSAISDSNIEKGETIKVLSVNGVKLKVEKVN | 0.0885 |
| HMMEERVIEFANVLRRNGVRVSLAENMDAFRALKSLGISDPLLFRHALRATLIKRGSDIQPFEELFDFFFL | -1.26 |
| HMTTQTGTVKWFNEGKGFGFIAPDDGGKDLFAHFKEIQGTGFKTLAENQRVEFEVTQGQKGPQASKI | -0.0807 |
| HMRPTHYSGPSVIAMINNRVWFSDGSRLAPGEHHDDLEVVGLSPPWSAKVRWQGVEFDVGLFE | -1.45 |
